Square brackets hold non-standard residues; d marks the D form. Side chains are listed from the residue outwards. Ends that are not written are not given here. Peptide text beside a SMILES is read from it. * marks the point of attachment. DOTA = O=C(O)CN1CCN(CC(=O)O)CCN(CC(=O)*)CCN(CC(=O)O)CC1; dTyr(3-I) = N[C@H](Cc1ccc(O)c(I)c1)C(=O)O; 2Nal = N[C@@H](Cc1ccc2ccccc2c1)C(=O)O; Palmitoyl = CCCCCCCCCCCCCCCC(=O)*; dNMeOrn = CN[C@H](CCCN)C(=O)O; 4Amb = NCc1ccc(C(=O)O)cc1
Columns and labels:
[1] = cited from earlier work
[2] = in vivo; cited from earlier work
[3] = assay type: in vitro ADME; conditions: human, plasma, plasma protein binding (PPB)
Experimental: (§1) Figure 3 Stability of the ^177Lu ligands in human plasma at 37 °C, expressed as % of intact radioligand over time, assessed by radio-HPLC. The % of plasma protein binding (PPB) after 60 min incubation is provided in parenthesis and it is expressed as the % of radioligand in the protein fraction (pellet) versus the total activity in the plasma. TEXT PRINTED IN THE PICTURE: ^177Lu-1: PPB: 35% | ^177Lu-2: PPB: 22% | ^177Lu-5: PPB: 42% | ^177Lu-6: PPB: 38% | ^177Lu-7: PPB: 39% | ^177Lu-9: PPB: 37%
For the determination of plasma protein binding (PPB), 100 μL from the plasma incubated with the ^177Lu ligand was removed and measured in a γ-counter (total radioactivity). Protein precipitation and separation followed, as described above. The supernatant and the protein pellet were then measured in a γ-counter. The percentage of plasma protein binding was calculated as the ratio between the protein-bound radioactivity and the total radioactivity in the plasma.

[4] = assay type: in vitro ADME, human
Experimental: Representative radiochromatograms are provided in Figure S25 for ^177Lu-1, ^177Lu-2, and ^177Lu-7. This included ^177Lu-9 despite its fatty acid chain.
as §1
To 1 mL of fresh human plasma, previously equilibrated at 37 °C, 500 pmol (8–10 MBq) of each ^177Lu-labeled ligand was added. The mixture was incubated at 37 °C for different time points (0, 15, 30, 60, and 120 min). At each time point, a 100 μL aliquot was removed and treated with 1.5 excess (v/v) of acetonitrile, to precipitate plasma proteins, followed by centrifugation for 5 min at 3500 rpm. The supernatant was collected and the process of protein precipitation was repeated. Afterward, 100 μL from the supernatant was taken, diluted with water at a ratio of 1:10 (v/v), and injected into radio-HPLC. The radioligand (in)stability was assessed by quantifying the percentage of intact radioligand over time.

[5] = assay type: physicochemical; conditions: pH 7.4
Experimental: In a prelubricated eppendorf tube, a presaturated mixture of 500 μL of octanol and 500 μL of phosphate-buffered saline (PBS) were added. 1 pmol of the ^177Lu-labeled ligand was pipetted into this mixture, vortexed for 30 min, and then centrifuged at 3000 rpm for 10 min to achieve phase separation. Aliquots of 100 μL were removed from the octanol and from the PBS phase and the activity measured in a γ-counter. The distribution coefficient was calculated as the average log ratio value of the radioactivity in the organic fraction and PBS fraction.

Ghost-CXCR4 cells = assay: Cellular uptake and distribution in Ghost-CXCR4 cells; assay type: cell-based, human; conditions: 37 °C, 60 min
Experimental: Figure 4 In vitro assessment in Ghost-CXCR4 cells at 37 °C. […] Each experiment was performed in triplicate. Results are means ± SD [% of applied activity] from a minimum of two separate experiments. […] Cellular uptake was interrupted at 15, 30, and 60 min by removing the medium and washing twice with ice-cold PBS. The cell surface-bound radioligand was obtained by washing cells twice with ice-cold glycine buffer (pH 2.8) followed by a collection of the internalized fraction after treating the cells with 1 M sodium hydroxide (NaOH). The activity in each fraction was measured in a γ-counter. […] The results were expressed as a percentage of the applied radioactivity after subtracting the nonspecific uptake.

[6] = Shelf-life of 177Lu-labeled ligands at room temperature (radio-HPLC); assay type: physicochemical
Experimental: The shelf-life of each ^177Lu-labeled ligand was monitored at room temperature up to 24 h after radiolabeling.
The shelf-lives of ^177Lu-labeled ligands were assessed at room temperature (RT) in the buffer used for labeling, as described above. For the analysis, 5 μL was withdrawn at desired time points (0, 1, 2, 4, and 24 h) from the stock solution and mixed with 50 μL of the Ca-DTPA solution. 20 μL of this mixture was withdrawn and injected in RP-HPLC.

Jurkat xenografts = assay type: in vivo, mouse; conditions: 1 h p.i., SPECT/CT or PET/CT
Experimental: The ability of the ^177Lu ligands to target CXCR4 in vivo was assessed by SPECT/CT imaging in Jurkat xenografts. […] 1 h after injection, the remaining amount of radioligand in the body (and vice versa, the washout) was quantified by measuring the total body activity (mouse) in a dose calibrator. The % of the radioligand remaining in the body after 1 h is reported in Figure 6A as % of the remaining activity in reference to the injected activity (100%).
Figure 6 SPECT/CT images as maximum intensity projections (MIPs) of Jurkat tumor-bearing mice at 1 h p.i. of ^177Lu-labeled ligands (200 pmol, ∼15 MBq). […] (B) Same SPECT/CT images of ^177Lu-1, ^177Lu-2, ^177Lu-5, and ^177Lu-6, adapted in a lower scale. T: tumor, L: liver, and K: kidneys. […] TEXT PRINTED IN THE PICTURE: (A) ^177Lu-1: Remaining Activity (% injected): 6 % | (A) ^177Lu-2: Remaining Activity (% injected): 7 % | (A) ^177Lu-5: Remaining Activity (% injected): 7 % | (A) ^177Lu-6: Remaining Activity (% injected): 8 % | (A) ^177Lu-7: Remaining Activity (% injected): 55 % | (A) ^177Lu-9: Remaining Activity (% injected): 94 %
The experimental protocol involving animals was approved by the Veterinary Office (Department of Health) of the Cantonal Basel-Stadt (Approval No. 30515) in accordance with the Swiss regulations for animal treatment. Female athymic nude-Foxn1^nu/Foxn1^+ mice (Envigo, The Netherlands), 4–6 weeks old, were injected subcutaneously with 10^7 Jurkat cells in a 200 μL (1:1) mixture of PBS and Matrigel (CorningMatrigelMembrane matrix, Fischer Scientific, Germany) on the right shoulder. The tumors were allowed to grow for 3–4 weeks before commencement of the experiments.
Nude mice bearing Jurkat xenografts were intravenously injected via the tail vein with ∼15 MBq (200 pmol) of the ^177Lu ligands and 8 MBq (200 pmol) of ^68Ga-7 were euthanized 1 h post injection (p.i.). The radioactivity in the syringe before and after injection was measured followed by measuring the amount of radioactivity remaining in the sacrificed mice. […]

[7] = cited from earlier work; remark: listed apart in the source

CC[C@H](C)[C@H](N)C(=O)N[C@@H](CC(C)C)C(=O)N[C@@H](CCCNC(=N)N)C(=O)N[C@@H](Cc1c[nH]c2ccccc12)C(=O)N[C@@H](CO)C(=O)N[C@@H](CCCNC(=N)N)C(=O)N[C@@H](CCCCN)C(=O)N[C@@H](CC(C)C)C(=O)N1CCC[C@H]1C(=O)N[C@@H](CS)C(=O)N[C@H](C(=O)N[C@@H](CO)C(=O)O)C(C)C [JM#21, I^1LRWSRK^7LPCVS^12]
half-life in human plasma [1]: ~6 min

CN1C(=O)[C@@H](Cc2ccc(O)cc2)NC(=O)CNC(=O)[C@H](Cc2ccc3ccccc3c2)NC(=O)[C@H](CCCN=C(N)N)NC(=O)[C@H]1CCCNC(=O)c1ccc(CNC(=O)CN2CCN(CC(=O)[O-])CCN(CC(=O)[O-])CCN(CC(=O)[O-])CC2)cc1.[68Ga+3] [^68Ga-Pentixafor, cyclo(D-Tyr^1-D-[NMe]Orn^2(AMBS-(^68Ga-DOTA))-Arg^3-Nal^4-Gly^5)] (cyclo([2Nal]G[dY][dNMeOrn]([4Amb-DOTA])R))
activity in the blood [2]: 1.08 ± 0.27 %IA/g
uptake in the kidneys [2]: 3.06 ± 0.63 %IA/g

CC[C@H](C)[C@H](N)C(=O)N[C@@H](CC(C)C)C(=O)N[C@@H](CCCNC(=N)N)C(=O)N[C@@H](Cc1c[nH]c2ccccc12)C(=O)N[C@@H](CO)C(=O)N[C@@H](CCCNC(=N)N)C(=O)N[C@@H](CCCCN)C(=O)N[C@@H](CC(C)C)C(=O)N1CCC[C@H]1C(=O)N[C@@H](CO)C(=O)N[C@H](C(=O)N[C@@H](CO)C(=O)N[C@@H](CCCCNC(=O)CN1CCN(CC(=O)O)CCN(CC(=O)O)CCN(CC(=O)O)CC1)C(=O)O)C(C)C [^177Lu-2, metal not drawn] (H-ILRWSRKLPSVSK(DOTA)-OH; N-terminus and C-terminus assumed)
fraction unbound at 60 min [3]: 0.78
time to complete degradation in human plasma [4]: 60 min
logD [5]: -3.23 ± 0.23

CCCCCCCCCCCCCCCC(=O)N[C@@H](CCC(=O)O)C(=O)NCCCC[C@H](NC(=O)[C@H](CCCNC(=N)N)NC(=O)[C@H](CO)NC(=O)[C@H](Cc1c[nH]c2ccccc12)NC(=O)[C@H](CCCNC(=N)N)NC(=O)[C@H](CC(C)C)NC(=O)[C@H](N)CC(C)C)C(=O)N[C@@H](CCCCNC(=O)CN1CCN(CC(=O)O)CCN(CC(=O)O)CCN(CC(=O)O)CC1)C(N)=O [^177Lu-9, metal not drawn] (H-[dL]LRWSRK([Glu-Palmitoyl])K(DOTA)-NH2; N-terminus assumed)
fraction unbound at 60 min [3]: 0.63
metabolic stability in plasma (in words) ([4]; human, plasma): high metabolic stability in plasma up to 4 h
cellular uptake (% of the applied activity) (Ghost-CXCR4 cells): 3.25 ± 0.06%
subcellular distribution (membrane-bound vs internalized) (Ghost-CXCR4 cells): almost entirely internalized
radiochemical purity (%) ([6]; 0 h after radiolabeling): 96 ± 3%
radiochemical purity (%) ([6]; 1 h after radiolabeling): 96 ± 2%
radiochemical purity (%) ([6]; 2 h after radiolabeling): 94 ± 1%
radiochemical purity (%) ([6]; 4 h after radiolabeling): 93 ± 1%
visualization of CXCR4-expressing tumor xenograft by imaging (Jurkat xenografts): failed to visualize CXCR4-expressing tumors
logD [5]: 0.29 ± 0.1

CN1C(=O)[C@@H](Cc2ccc(O)c(I)c2)NC(=O)CNC(=O)[C@H](Cc2ccc3ccccc3c2)NC(=O)[C@H](CCCN=C(N)N)NC(=O)[C@H]1CCCNC(=O)c1ccc(CNC(=O)CN2CCN(CC(=O)O)CCN(CC(=O)O)CCN(CC(=O)O)CC2)cc1.[177Lu] [^177Lu-Pentixather, cyclo(3-iodo-D-Tyr^1-D-[NMe]Orn^2(AMBS-(^177Lu-DOTA)-Arg^3-Nal^4-Gly^5)] (cyclo([2Nal]G[dTyr(3-I)][dNMeOrn]([4Amb-DOTA])R))
plasma protein binding (PPB) [7]: 97%

LVRYTKKVPQVSTPTL [EPI-X4]
half-life in human plasma [1]: 17 min

— paper PMC10350915, “Development of a New Class of CXCR4-Targeting Radioligands Based on the Endogenous Antagonist EPI-X4 for Oncological Applications” (Journal of Medicinal Chemistry, 2023)
